8 molecules from patent US20100260765A1 (AstraZeneca / MedImmune, published 2010) can be followed below.

Changes are numbered by the printed parent chain.

First the molecules themselves.
B1: 33E1 (antibody, V domains shown)
VH: QVQLQESGPGLVKPSQTLSLTCTVSGGSISSGDHYWSWIRQHPGKGLEWIGHIYYSGSTDYNPSLKSRVTISVDTSKNHFSLKLNSVTAADTAVYYCARTNSSSWSDWYFDLWGRGTLVTVSS
VL: DIVMTQSPDSLAVSLGERATINCKSSQSILYSSNNKNYLAWYQRKPGQPPILLIHWASTRESGVPDRFSGSGSRTDFTLTISSLQAEDVAVYYCQQYFITPWTFGQGTKVEIK
notes: Fully human mAb from XenoMouse hybridoma, tested as hybridoma supernatant
B2: 31E11 (antibody, V domains shown)
VH: QVQLVESGGGLVKPGGSLRLSCAASGFTFSDYYMSWIRQAPGKGLEWVSYISISGSTIYYADSVKGRFTISRDNAKNSLYLQMNSLRAEDTAVYYCARDDFWSGYYFNWFDPWGQGTLVTVSS
VL: DIQMTQSPSSLSASVGDRVTITCRANQTISTFLNWYQQNPGKAPKLLIYAASSLQSGVPSRFSGSGSGTDFTLTISSLQPEDFATYYCQQTYIIPLTFGGGTKVEIK
notes: as for B1
B3: 33C3 (antibody, V domains shown)
VH: B2 VH with G16E, I53H, S54G, A88V, Y95F, T117A
VL: DIQMTQYPLSLSASVGDRVTITCRASQSISSFLNWYHQKPGKAPKLLIYGTSSLQSGVPSRFSGSGSGTDFTLTISSLQPEDFATYYCQQTYSIPLTFGGGTNVEIK
notes: as for B1
B4: 30F6 (antibody, V domains shown)
VH: QVQLVESGGGVVQPGRSLRLSCAASGFTFSTYGMHWVRQAPGKGLEWVAVIWYDGSNKYYADSVKGRFTISRDNSKNTLYLQMNSLRAEDTAVYYCACSYWNDDYYYGMDVWGQGTTVTVSS
VL: DIQMTQSPSSLSASVGDRVIITCRASQNISSYLIWYQQKPGKAPNLLIHTTSSLQRGVPSRFSGSGSGTDFTLTISSLQPEDFATYYCQQSYSAPLTFGGGTKVEIK
notes: as for B1
B5: 29A11 (antibody, V domains shown)
VH: EVQLLESGGGLVQPGGSLRLSCAASGFTFSNYAMNWVRQAPGKGLEWVSAISGGGGNTYYADSVKGRFTISRDNSKNTLYLQMNRLRAEDTAVYYCAKASGDDWGQGTLVTVSS
VL: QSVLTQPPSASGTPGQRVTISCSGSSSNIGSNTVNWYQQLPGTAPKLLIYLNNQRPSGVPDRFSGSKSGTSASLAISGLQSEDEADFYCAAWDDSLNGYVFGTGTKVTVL
notes: as for B1
B6: 30E3 (antibody, V domains shown)
VH: B5 VH with M34L, N35S, G54S, G56R, I70L, Y80F, R85S, D103N
VL: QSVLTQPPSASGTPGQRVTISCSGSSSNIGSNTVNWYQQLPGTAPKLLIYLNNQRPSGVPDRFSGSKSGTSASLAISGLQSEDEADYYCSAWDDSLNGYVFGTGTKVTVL
notes: as for B1
B7: 30H10 (antibody, V domains shown)
VH: B5 VH with N35S, G54S, N57I, Y80F, R85S, D103N, T111S
VL: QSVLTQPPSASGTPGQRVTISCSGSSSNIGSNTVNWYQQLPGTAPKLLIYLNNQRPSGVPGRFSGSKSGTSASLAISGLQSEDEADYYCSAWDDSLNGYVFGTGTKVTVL
notes: as for B1
B8: 32C11 (antibody, V domains shown)
VH: B5 VH with G10T, N35S, G54R, G55A, N57S, Y80F, R85S
VL: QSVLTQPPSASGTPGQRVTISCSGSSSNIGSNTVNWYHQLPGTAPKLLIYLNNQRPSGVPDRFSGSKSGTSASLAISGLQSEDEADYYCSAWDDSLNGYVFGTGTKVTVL
notes: as for B1

One test deals with T1, soluble KDR extracellular domain (ECD) (Calbiochem) (human, UniProt P35968 20-764).
T1 construct: extracellular domain; Bought protein; also called KDR-ECD; VEGF Receptor 2 D1-7, Cat. #676490
T1 sequence (P35968 20-764): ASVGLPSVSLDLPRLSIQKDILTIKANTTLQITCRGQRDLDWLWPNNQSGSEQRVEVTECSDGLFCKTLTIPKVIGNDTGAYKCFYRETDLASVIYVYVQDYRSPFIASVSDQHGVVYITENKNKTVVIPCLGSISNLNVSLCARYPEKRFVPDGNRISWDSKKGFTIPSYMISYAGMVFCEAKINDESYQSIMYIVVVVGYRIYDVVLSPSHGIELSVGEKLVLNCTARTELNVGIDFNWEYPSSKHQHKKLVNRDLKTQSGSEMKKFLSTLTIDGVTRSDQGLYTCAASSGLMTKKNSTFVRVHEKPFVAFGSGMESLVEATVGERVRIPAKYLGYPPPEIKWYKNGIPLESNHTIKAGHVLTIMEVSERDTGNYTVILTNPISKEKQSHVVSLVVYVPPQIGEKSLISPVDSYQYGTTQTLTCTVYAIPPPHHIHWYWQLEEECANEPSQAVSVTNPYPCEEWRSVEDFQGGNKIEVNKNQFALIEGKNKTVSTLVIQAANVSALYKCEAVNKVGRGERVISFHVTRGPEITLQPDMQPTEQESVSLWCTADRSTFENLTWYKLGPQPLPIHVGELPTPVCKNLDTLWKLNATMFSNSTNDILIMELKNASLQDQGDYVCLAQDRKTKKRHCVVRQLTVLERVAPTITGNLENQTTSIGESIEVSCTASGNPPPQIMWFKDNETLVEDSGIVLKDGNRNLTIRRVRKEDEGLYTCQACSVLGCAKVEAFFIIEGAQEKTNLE
Description: Limited Antigen ELISA, KDR coat 12.5 ng/mL, supernatant 1:25. As for the experimental part:
(§1) Samples containing one concentration of antibody (Ab) (1:25 dilution) were incubated overnight to allow Ab binding to approach equilibrium. The low antigen concentration limited the effect of antibody concentration, allowing ranking of the antibodies based on their relative affinity.
Background: In an ELISA, binding on a coated surface is turned into a signal by an enzyme label.
Molecule B1 had an ELISA reading of 0.15.

B2: the ELISA reading was found to be 0.68.

On to B3, for which the ELISA reading came to 0.72.

Turning to B4, the ELISA reading amounted to 0.25.

For B5, the ELISA reading amounted to 1.05.

With B6, the ELISA reading stood at 0.73.

In turn, B7 registered an ELISA reading of 0.52.

In turn, B8 registered an ELISA reading of 0.69.

The target of a further test is T1, soluble KDR extracellular domain (ECD) …. Nature of the test: High Antigen ELISA, KDR coat 500 ng/mL, supernatant 1:25.
As for B1, the ELISA reading turned out to be 4.06.

B2 came in with an ELISA reading of 4.48.

B3 displayed an ELISA reading of 4.96.

B4 returned an ELISA reading of 3.04.

Take B5: the ELISA reading worked out at 4.66.

B6 came in with an ELISA reading of 6.

Take B7: the ELISA reading is 4.42.

Molecule B8 came in with an ELISA reading of 4.36.

The next test shares this target. Description: High Antigen ELISA, KDR coat 500 ng/mL, supernatant 1:225.
For the molecule B1, the ELISA reading came out at 4.07.

The molecule B2 had an ELISA reading of 4.61.

The molecule B3 displayed an ELISA reading of 4.31.

B4 had an ELISA reading of 2.42.

In turn, B5 showed an ELISA reading of 6.

In turn, B6 showed an ELISA reading of 4.45.

In the case of B7, the ELISA reading was found to be 6.

B8 registered an ELISA reading of 4.28.

The target is the same in another test. Nature of the test: Limited Antigen ELISA, KDR coat 50 ng/mL, supernatant 1:25. As for the experimental part:
as §1
With B1, the ELISA reading amounted to 0.85.

B2 returned an ELISA reading of 2.37.

The molecule B3 registered an ELISA reading of 3.

The molecule B4 displayed an ELISA reading of 0.52.

B5 showed an ELISA reading of 3.43.

On to B6, for which the ELISA reading is 2.71.

Regarding B7, the ELISA reading stood at 2.21.

As for B8, the ELISA reading was determined as 2.48.

The target is the same in the next test. Nature of the test: Limited Antigen ELISA, KDR coat 25 ng/mL, supernatant 1:25. As for the experimental part: as §1
As for B1, the ELISA reading turned out to be 0.36.

In the case of B2, the ELISA reading was determined as 1.24.

With B3, the ELISA reading was 1.32.

Turning to B4, the ELISA reading was 0.31.

As for B5, the ELISA reading turned out to be 1.9.

Molecule B6 yielded an ELISA reading of 1.37.

The molecule B7 registered an ELISA reading of 1.18.

In turn, B8 came in with an ELISA reading of 1.12.

The target is the same in the next test. Description: High Antigen ELISA, KDR coat 500 ng/mL, supernatant 1:2025.
As to B1, the ELISA reading was determined as 2.09.

B2: the ELISA reading turned out to be 1.81.

In the case of B3, the ELISA reading was 0.84.

For the molecule B4, the ELISA reading was determined as 0.35.

B5 yielded an ELISA reading of 4.33.

For the molecule B6, the ELISA reading came to 0.86.

Regarding B7, the ELISA reading worked out at 2.52.

In turn, B8 returned an ELISA reading of 0.82.

The next test shares this target. Nature of the test: High Antigen ELISA, KDR coat 500 ng/mL, supernatant 1:75.
With B1, the ELISA reading came to 4.24.

B2 registered an ELISA reading of 6.

Turning to B3, the ELISA reading is 4.96.

Turning to B4, the ELISA reading was found to be 3.12.

With B5, the ELISA reading amounted to 6.

On to B6, for which the ELISA reading came out at 4.78.

In the case of B7, the ELISA reading was determined as 6.

For the molecule B8, the ELISA reading was 6.

The next test has the same target. Nature of the test: Limited Antigen ELISA, KDR coat 3.125 ng/mL, supernatant 1:25. As for the experimental part: as §1
The molecule B1 showed an ELISA reading of 0.07.

Molecule B2 had an ELISA reading of 0.2.

For B3, the ELISA reading was determined as 0.2.

B4 had an ELISA reading of 0.1.

Turning to B5, the ELISA reading came out at 0.3.

For B6, the ELISA reading stood at 0.24.

The molecule B7 showed an ELISA reading of 0.17.

For the molecule B8, the ELISA reading was 0.2.

A further test has the same target. Description: High Antigen ELISA, KDR coat 500 ng/mL, supernatant 1:18,225.
Regarding B1, the ELISA reading was found to be 0.49.

B2 came in with an ELISA reading of 0.31.

For B3, the ELISA reading is 0.18.

For the molecule B4, the ELISA reading was determined as 0.09.

For the molecule B5, the ELISA reading came to 0.99.

For B6, the ELISA reading came out at 0.18.

B7 returned an ELISA reading of 0.64.

B8 displayed an ELISA reading of 0.14.

The next test shares this target. Description: High Antigen ELISA, KDR coat 500 ng/mL, supernatant 1:6075.
Consider B1, for which the ELISA reading turned out to be 0.98.

With B2, the ELISA reading came out at 0.62.

As for B3, the ELISA reading came to 0.31.

The molecule B4 returned an ELISA reading of 0.16.

Consider B5, for which the ELISA reading was found to be 2.16.

B6: the ELISA reading came out at 0.32.

The molecule B7 yielded an ELISA reading of 1.18.

Consider B8, for which the ELISA reading came to 0.27.

The next test shares this target. Description: Limited Antigen ELISA, KDR coat 6.25 ng/mL, supernatant 1:25. How it is done:
as §1
The molecule B1 yielded an ELISA reading of 0.11.

The molecule B2 yielded an ELISA reading of 0.39.

Consider B3, for which the ELISA reading is 0.37.

B4 displayed an ELISA reading of 0.13.

In the case of B5, the ELISA reading worked out at 0.59.

With B6, the ELISA reading was 0.43.

Regarding B7, the ELISA reading was 0.31.

Consider B8, for which the ELISA reading was found to be 0.35.

In another test the target is KDR endogenously expressed on human umbilical vein endothelial cells (HUVEC) (human, UniProt P35968 20-1356). Nature of the test: cell-based or functional assay.
Chain of KDR endogenously expressed on human umbilical vein endothelial cells (HUVEC) (P35968 20-1356): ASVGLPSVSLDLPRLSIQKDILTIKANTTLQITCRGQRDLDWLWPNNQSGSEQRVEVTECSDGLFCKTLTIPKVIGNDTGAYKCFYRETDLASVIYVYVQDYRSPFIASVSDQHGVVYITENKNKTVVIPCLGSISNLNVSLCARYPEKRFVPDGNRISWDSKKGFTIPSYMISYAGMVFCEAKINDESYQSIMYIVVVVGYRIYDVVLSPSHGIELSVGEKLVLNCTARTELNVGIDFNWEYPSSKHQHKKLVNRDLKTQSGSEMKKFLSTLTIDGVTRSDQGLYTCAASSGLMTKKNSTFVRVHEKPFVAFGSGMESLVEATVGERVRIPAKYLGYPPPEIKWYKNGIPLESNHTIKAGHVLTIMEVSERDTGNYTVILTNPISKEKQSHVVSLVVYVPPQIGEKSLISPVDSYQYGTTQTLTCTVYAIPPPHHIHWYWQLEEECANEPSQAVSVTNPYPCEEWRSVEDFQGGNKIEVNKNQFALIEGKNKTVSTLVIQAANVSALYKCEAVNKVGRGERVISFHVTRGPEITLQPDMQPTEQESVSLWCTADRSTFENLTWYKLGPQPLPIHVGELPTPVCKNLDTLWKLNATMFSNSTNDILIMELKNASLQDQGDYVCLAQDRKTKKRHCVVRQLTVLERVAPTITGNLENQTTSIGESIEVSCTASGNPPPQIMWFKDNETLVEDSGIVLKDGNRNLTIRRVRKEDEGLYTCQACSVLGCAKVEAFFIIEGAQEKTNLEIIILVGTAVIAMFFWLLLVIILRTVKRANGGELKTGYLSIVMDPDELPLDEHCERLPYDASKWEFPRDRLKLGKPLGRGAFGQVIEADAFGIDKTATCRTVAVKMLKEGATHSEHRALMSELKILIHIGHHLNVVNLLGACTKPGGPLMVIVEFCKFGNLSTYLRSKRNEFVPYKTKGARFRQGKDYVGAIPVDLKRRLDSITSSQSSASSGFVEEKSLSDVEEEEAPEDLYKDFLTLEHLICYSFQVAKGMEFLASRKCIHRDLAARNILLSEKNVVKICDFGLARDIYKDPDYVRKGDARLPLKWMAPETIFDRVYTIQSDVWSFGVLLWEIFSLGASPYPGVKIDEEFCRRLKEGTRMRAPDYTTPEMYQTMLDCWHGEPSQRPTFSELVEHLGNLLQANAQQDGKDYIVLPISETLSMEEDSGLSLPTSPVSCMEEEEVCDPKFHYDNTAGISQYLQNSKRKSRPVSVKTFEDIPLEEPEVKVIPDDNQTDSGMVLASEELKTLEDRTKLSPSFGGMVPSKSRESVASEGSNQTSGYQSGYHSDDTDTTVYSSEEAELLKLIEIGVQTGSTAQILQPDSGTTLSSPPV
Consider B1, for which the “VEGF-E-mediated Survival % Inhibition (Average)” value amounted to 60%, the “VEGF-E-mediated Survival % Inhibition (n = 1)” value was found to be 66% and the “VEGF-E-mediated Survival % Inhibition (n = 2)” value amounted to 54%.

With B2, the “VEGF-E-mediated Survival % Inhibition (Average)” value is 55%, the “VEGF-E-mediated Survival % Inhibition (n = 1)” value came out at 56% and the “VEGF-E-mediated Survival % Inhibition (n = 2)” value came out at 54%.

As for B3, the “VEGF-E-mediated Survival % Inhibition (Average)” value came to 74%, the “VEGF-E-mediated Survival % Inhibition (n = 1)” value is 78% and the “VEGF-E-mediated Survival % Inhibition (n = 2)” value amounted to 69%.

In the case of B4, the “VEGF-E-mediated Survival % Inhibition (Average)” value worked out at 37%, the “VEGF-E-mediated Survival % Inhibition (n = 1)” value turned out to be 31% and the “VEGF-E-mediated Survival % Inhibition (n = 2)” value is 43%.

Take B5: the “VEGF-E-mediated Survival % Inhibition (Average)” value was 5%, the “VEGF-E-mediated Survival % Inhibition (n = 1)” value amounted to 8% and the “VEGF-E-mediated Survival % Inhibition (n = 2)” value was 1%.

As to B6, the “VEGF-E-mediated Survival % Inhibition (Average)” value was -14%, the “VEGF-E-mediated Survival % Inhibition (n = 1)” value is -21% and the “VEGF-E-mediated Survival % Inhibition (n = 2)” value is -7%.

Take B7: the “VEGF-E-mediated Survival % Inhibition (Average)” value is -10%, the “VEGF-E-mediated Survival % Inhibition (n = 1)” value was -21% and the “VEGF-E-mediated Survival % Inhibition (n = 2)” value came to 2%.

Turning to B8, the “VEGF-E-mediated Survival % Inhibition (Average)” value is 6%, the “VEGF-E-mediated Survival % Inhibition (n = 1)” value stood at 5% and the “VEGF-E-mediated Survival % Inhibition (n = 2)” value worked out at 7%.

The target of another test is T1, soluble KDR extracellular domain (ECD) …. Description: High Antigen ELISA, KDR coat 500 ng/mL, supernatant 1:675.
For the molecule B1, the ELISA reading was found to be 3.51.

The molecule B2 returned an ELISA reading of 3.6.

Regarding B3, the ELISA reading is 2.55.

B4: the ELISA reading is 0.93.

B5: the ELISA reading was 5.09.

For B6, the ELISA reading is 2.12.

As to B7, the ELISA reading was determined as 4.61.

Molecule B8 registered an ELISA reading of 2.02.
